# Assays:
# [1] = molecular target: M. jannaschii RNA polymerase, wild type, reconstituted from 12 recombinant subunits (M. jannaschii) (UniProt Q58443)
# [2] = molecular target: RNAPΔRpo4/7, ten-subunit RNAP subassembly lacking Rpo4/7 (M. jannaschii) (UniProt Q58443)
# [3] = molecular target: M. jannaschii RNA polymerase, wild type, reconstituted from 12 recombinant subunits (M. jannaschii) (UniProt Q58443); remark: listed apart in the source
# [4] = molecular target: M. jannaschii RNA polymerase, wild type, reconstituted from 12 recombinant subunits (M. jannaschii) (UniProt Q58443); remark: listed apart in the source
# [5] = molecular target: M. jannaschii RNA polymerase, wild type, reconstituted from 12 recombinant subunits (M. jannaschii) (UniProt Q58443); assay: native gel or EMSA; competition: Spt4/5 or Spt4/5^A4R (0.33, 1, 7.5, 25 μM) added to a preformed complex of free RNAP and TFE^133*DL549 (0.74 μM)
# [6] = molecular target: M. jannaschii RNA polymerase, wild type, reconstituted from 12 recombinant subunits (M. jannaschii) (UniProt Q58443); assay: native gel or EMSA; competition in the PIC: Spt4/5 (0, 16, 32, 137 μM) added to preformed PICs (DNA, TBP, TFB, RNAP) with fluorescently labeled TFE (0.75 μM)
# [7] = molecular target: M. jannaschii RNA polymerase, wild type, reconstituted from 12 recombinant subunits (M. jannaschii) (UniProt Q58443); assay: native gel or EMSA; competition in the TEC: RNAP (0.21 μM), NTS (20 μM), TS (15 μM), RNA (68 μM), TFE^G133*DL549 (0.74 μM), Spt4/5 or Spt4/5^A4R (1, 2.5, 15 μM)
"stimulation of promoter-directed runoff transcription by TFE (0, 0.32, 8 μM) [1] [fold]",stimulation of promoter-directed transcription by TFE (8 μM) [2] [fold],"inhibition of promoter-directed runoff transcription by minimal complexes (DNA, TBP, TFB, RNAP; no TFE) [3] [µM]","inhibition of transcript synthesis in promoter-directed transcription, Spt4/5 at 55.2 μM [4] [fold]",IC50 [5] [nM],IC50 [6] [nM],IC50 [7] [nM],Binder
5,< 1.2,–,–,–,–,–,"TFE (archaeal transcription initiation factor E), unlabeled wild type (natural protein) MLNDPLVQEVLFNIFEGDEKGFEVIDVLLEKGETTEEEIAKELGVKLNVVRKLLYKLYDARLVDYKRWKDEDTNWYSYTWLPTLEKLPYVVKKKINELIKDLEKKLEFEKNNMFFFCPNCNVRFTFEEAMDYGFSCPGCGNMLQEFDNSELIKDLEEQIKFLKEELKNNPFLK"
–,–,9.6,> 10,550,29000,790,"Spt4/5, transcription elongation factor, wild type (complex) chain 1: MRACLKCKYLTNDEICPICHSPTSENWIGLLIVINPEKSEIAKKAGIDIKGKYALSVKE chain 2: MIFAVRTMVGQEKNIAGLMASRAEKEQLDVYSILASESLKGYVLVEAETKGDVEELIKGMPRVRGIVPGTIAIEEIEPLLTPKKIIENIEKGDVVEIIAGPFKGERAKVIRVDKHKEEVTLELENAAVPIPITLPVEGVKIVSKHKD"

# Reference: publication PMC3223566
